Measured values from US20220089743A1 (Chugai, published 2022).
Numbering of substitutions follows the chain as printed. Where two headings read alike, the source gives them in different places.

T1: HLA-DQ5.1 on Ba/F3 cells (human, limits assumed)
T1 construct: whole, on cells; also called Ba/F3-HLA-DQ5.1
T1 MHC II alpha: not shown
T1 MHC II beta: not shown

T2: HLA-DQ6.3 on Ba/F3 cells (human, UniProt P01920 33-230, limits assumed)
T2 construct: whole, on cells; also called Ba/F3-HLA-DQ6.3
T2 MHC II alpha: not shown
T2 MHC II beta: not shown

T3: HLA-DR on Ba/F3 cells (human, UniProt P01903 26-216; P79483 30-227, limits assumed)
T3 construct: whole, on cells; also called Ba/F3-HLA-DR
T3 MHC II alpha: not shown
T3 MHC II beta: not shown

T4: HLA-DQ2.2 on Ba/F3 cells (human, UniProt P01909 24-216, limits assumed)
T4 construct: whole, on cells; also called Ba/F3-HLA-DQ2.2
T4 MHC II alpha: not shown
T4 MHC II beta: not shown

T5: HLA-DQ8 on Ba/F3 cells (human, UniProt P01909 24-216; P01920 33-230, limits assumed)
T5 construct: whole, on cells; also called Ba/F3-HLA-DQ8
T5 MHC II alpha: not shown
T5 MHC II beta: not shown

T6: HLA-DQ7.3 on Ba/F3 cells (human, UniProt P01909 24-216; P01920 33-230, limits assumed)
T6 construct: whole, on cells; also called Ba/F3-HLA-DQ7.3
T6 MHC II alpha: not shown
T6 MHC II beta: not shown

B1: DQN0344H1013/L0620//DQN0385H1352/L0681-F6 (bispecific antibody)
heavy 1: QVQLVESGGGVVQPGRSLRLSCAASGFTFSSAYWMVWVRQAPGQGLEWMGAVYGGSDTTYYAKWTEGRFTISRDTSKNTLYLQMNSLRAEDTAVYYCAREPLNYYYYGELNVWGQGTLVTVSSASTKGPSVFPLAPSSKSTSGGTAALGCLVKDYFPEPVTVSWNSGALTSGVHTFPAVLKSSGLYSLSSVVTVPSSSLGTQTYICNVNHKPSNTKVDKRVEPKSCDKTHTCPPCPAPELRRGPSVFLFPPKPKDTLMISRTPEVTCVVVDVSHEDPEVKFNWYVDGVEVHNAKTKPREEQYNSTYRVVSVLTVLHQDWLNGKEYKCKVSNKALPAPIEKTISKAKGQPREPQVYTLPPSREEMTKNQVSLTCLVKGFYPSDIAVEWESNGQPENNYKTTPPYLDSDGSFFLYSKLTVDKSRWQEGNVFSCSVLHEALHAHYTREELSLSP
light 1: DIQMTQSPSSLSASVGDRVTITCQATENIYSGLAWYQQKPGKAPKLLIYYVSTLAYGIPARFSGSGSGTDFTLTISSLEPEDFAVYYCQTYEDVSAVTFGQGTKVEIKRTVAAPSVFIFPPSDEQLKSGTAEVVCLLNNFYPREAKVQWKVDNALQSGNSEESVTEQDSKDSTYSLSSTLTLSKADYEKHKVYACEVTHQGLSSPVTKSFNRGEC
heavy 2: QVQLVESGGGVVQPGRSLRLSCAASGFEFSEWYFMSWVRQAPGKGLEWVASIDTGSGSIDYAEWVEGRFTISRDNSKNTLYLQMNSLRAEDTAVYYCARDIGIDYNFWGPGTLVTVSSASTKGPSVFPLAPSSKSTSGGTAALGCLVEDYFPEPVTVSWNSGALTSGVHTFPAVLESSGLYSLSSVVTVPSSSLGTKTYICNVNHKPSNTKVDKRVEPKSCDKTHTCPPCPAPELRRGPSVFLFPPKPKDTLMISRTPEVTCVVVDVSHEDPEVKFNWYVDGVEVHNAKTKPREEQYNSTYRVVSVLTVLHQDWLNGKEYKCKVSNKALPAPIEKTISKAKGQPREPQVYTLPPSRKEMTKNQVSLTCLVKGFYPSDIAVEWESNGQPENNYKTTPPYLDSDGSFFLYSKLTVDKSRWQQGNVFSCSVLHEALHAHYTRKELSLSP
light 2: DIQMTQSPSSLSASVGDRVTITCQTTQSISSYLNWYQQKPGQPPKLLIYYASTKAEGIPARFSGSGLGTDFTLTISSLEPEDFAVYYCHYGISKVSFGQGTKVEIKRTVAAPSVFIFPPSDEQLKSGTAKVVCLLNNFYPREAKVQWKVDNALQSGNSKESVTEQDSKDSTYSLSSTLTLSKADYEKHKVYACEVTHQGLSSPVTKSFNRGEC
B2: DQN0344H1013/L0620//DQN0385H1353/L0681-F6 (bispecific antibody)
heavy 1: B1 heavy 1
light 1: B1 light 1
heavy 2: B1 heavy 2 with E28T, S30A
light 2: B1 light 2

Experiments:
[1] = target: HLA-DQ2.5 on IHW09023 cells loaded with 33 mer gliadin peptide (human; wheat); test: cell-based or functional assay
[2] = target: HLA-DQ2.5 on IHW09023 cells loaded with omega1/2 gliadin peptide (human; wheat); test: cell-based or functional assay
[3] = target: HLA-DQ2.5 on IHW09023 cells loaded with BC hordein peptide (human; barley); test: cell-based or functional assay
[4] = target: HLA-DQ2.5 on IHW09023 cells loaded with gamma 1 gliadin peptide (human; wheat); test: cell-based or functional assay
[5] = target: HLA-DQ2.5 on IHW09023 cells loaded with gamma 2 gliadin peptide (human; wheat); test: cell-based or functional assay
[6] = target: HLA-DQ2.5 on IHW09023 cells loaded with gamma 3 gliadin peptide (human; wheat); test: cell-based or functional assay
[7] = target: HLA-DQ2.5 on IHW09023 cells loaded with gamma 4a gliadin peptide (human; wheat); test: cell-based or functional assay
[8] = target: HLA-DQ2.5 on IHW09023 cells loaded with gamma 4d gliadin peptide (human; wheat); test: cell-based or functional assay
HLA-DQ5.1 on Ba/F3 cells = target: T1, HLA-DQ5.1 on Ba/F3 cells; test: FACS, Ba/F3 cells; raw MFI
HLA-DQ6.3 on Ba/F3 cells = target: T2, HLA-DQ6.3 on Ba/F3 cells; test: FACS, Ba/F3 cells; raw MFI
HLA-DR on Ba/F3 cells = target: T3, HLA-DR on Ba/F3 cells; test: FACS, Ba/F3 cells; raw MFI
HLA-DP on Ba/F3 cells = target: T7, HLA-DP on Ba/F3 cells (human, UniProt P20036 29-222; P04440 30-225, limits assumed); test: FACS, Ba/F3 cells; raw MFI
T7 construct: whole, on cells; also called Ba/F3-HLA-DP

HLA-DQ2.5 on Ba/F3 cells [9] = target: T8, HLA-DQ2.5 on Ba/F3 cells (human, UniProt P01909 24-216, limits assumed); test: FACS, Ba/F3 cells; %MFI with IC17dK 0 and DQN0139bb 100
T8 construct: whole, on cells; MHC class II without a fused peptide; also called Ba/F3-HLA-DQ2.5

HLA-DQ2.2 on Ba/F3 cells [10] = target: T4, HLA-DQ2.2 on Ba/F3 cells; test: as above
HLA-DQ7.5 on Ba/F3 cells [11] = target: T9, HLA-DQ7.5 on Ba/F3 cells (human, UniProt P01909 24-216; P01920 33-230, limits assumed); test: as above
T9 construct: whole, on cells; also called Ba/F3-HLA-DQ7.5

HLA-DQ8 on Ba/F3 cells [12] = target: T5, HLA-DQ8 on Ba/F3 cells; test: as above
HLA-DQ7.3 on Ba/F3 cells [13] = target: T6, HLA-DQ7.3 on Ba/F3 cells; test: as above
HLA-DQ2.5 on Ba/F3 cells [14] = target: T8, HLA-DQ2.5 on Ba/F3 cells; test: as above; remark: listed apart in the source
HLA-DQ2.2 on Ba/F3 cells [15] = target: T4, HLA-DQ2.2 on Ba/F3 cells; test: as above
HLA-DQ7.5 on Ba/F3 cells [16] = target: T9, HLA-DQ7.5 on Ba/F3 cells; test: as above; remark: listed apart in the source
HLA-DQ8 on Ba/F3 cells [17] = target: T5, HLA-DQ8 on Ba/F3 cells; test: as above
HLA-DQ7.3 on Ba/F3 cells [18] = target: T6, HLA-DQ7.3 on Ba/F3 cells; test: as above

T7 sequence (P20036 29-222 limits assumed, chain 1 of 4, other chains not shown): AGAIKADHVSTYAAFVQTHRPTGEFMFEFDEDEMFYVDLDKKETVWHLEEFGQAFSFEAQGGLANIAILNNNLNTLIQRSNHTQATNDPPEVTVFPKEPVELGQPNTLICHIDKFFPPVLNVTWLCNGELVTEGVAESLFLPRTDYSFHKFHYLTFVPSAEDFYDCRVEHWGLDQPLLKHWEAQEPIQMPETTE
T7 sequence (P04440 30-225 limits assumed, chain 2 of 4, other chains not shown): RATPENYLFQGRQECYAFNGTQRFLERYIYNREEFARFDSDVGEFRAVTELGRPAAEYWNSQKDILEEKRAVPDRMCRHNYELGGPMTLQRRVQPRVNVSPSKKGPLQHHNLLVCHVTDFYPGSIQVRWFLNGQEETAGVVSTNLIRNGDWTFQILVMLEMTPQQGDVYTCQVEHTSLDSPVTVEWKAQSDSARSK

| Binder | IC50, α1a gliadin TCR, 250 nM 33mer gliadin [1] [ng/mL] | IC50, α1b gliadin TCR, 250 nM 33mer gliadin [1] [ng/mL] | IC50, α2 gliadin TCR, 250 nM 33mer gliadin [1] [ng/mL] | IC50, ω1 gliadin TCR, 25 µM ω1/2 gliadin [2] [ng/mL] | IC50, ω2 gliadin TCR, 250 nM ω1/2 gliadin [2] [ng/mL] | IC50, BC hordein TCR, 250 nM BC hordein [3] [ng/mL] | IC50, γ1 gliadin TCR, 250 nM γ1 gliadin [4] [ng/mL] | IC50, γ2 gliadin TCR, 250 nM γ2 gliadin [5] [ng/mL] | IC50, γ3 gliadin TCR, 100 µM γ3 gliadin [6] [ng/mL] | IC50, γ4a gliadin TCR, 25 µM γ4a gliadin [7] [ng/mL] | IC50, γ4d gliadin TCR, 100 µM γ4d gliadin [8] [ng/mL] | binding result (HLA-DQ5.1 on Ba/F3 cells) | binding result (HLA-DQ6.3 on Ba/F3 cells) | binding result (HLA-DR on Ba/F3 cells) | binding result (HLA-DP on Ba/F3 cells) | other results |
| --- | --- | --- | --- | --- | --- | --- | --- | --- | --- | --- | --- | --- | --- | --- | --- | --- |
| B1 | 0.26 | 1.13 | 0.38 | 1.88 | 0.27 | 11.6 | 1.71 | 279 | 3.15 | 1730 | 3.15 | no binding (tested: 0.05 ug/mL) | no binding (tested: 0.05 ug/mL) | no binding (tested: 0.05 ug/mL) | no binding (tested: 0.05 ug/mL) | binding result (HLA-DQ2.5 on Ba/F3 cells [9]): no binding (tested: 0.05 ug/mL); binding result (HLA-DQ2.2 on Ba/F3 cells [10]): no binding (tested: 0.05 ug/mL); binding result (HLA-DQ7.5 on Ba/F3 cells [11]): no binding (tested: 0.05 ug/mL); binding result (HLA-DQ8 on Ba/F3 cells [12]): no binding (tested: 0.05 ug/mL); binding result (HLA-DQ7.3 on Ba/F3 cells [13]): no binding (tested: 0.05 ug/mL) |
| B2 | 0.29 | 1.13 | 0.34 | 1.17 | 0.17 | 8.78 | 0.56 | 100 | 2.29 | 1250 | 2.06 | no binding (tested: 0.05 ug/mL) | no binding (tested: 0.05 ug/mL) | no binding (tested: 0.05 ug/mL) | no binding (tested: 0.05 ug/mL) | binding result (HLA-DQ2.5 on Ba/F3 cells [14]): no binding (tested: 0.05 ug/mL); binding result (HLA-DQ2.2 on Ba/F3 cells [15]): no binding (tested: 0.05 ug/mL); binding result (HLA-DQ7.5 on Ba/F3 cells [16]): no binding (tested: 0.05 ug/mL); binding result (HLA-DQ8 on Ba/F3 cells [17]): no binding (tested: 0.05 ug/mL); binding result (HLA-DQ7.3 on Ba/F3 cells [18]): no binding (tested: 0.05 ug/mL) |
